This note sets out measurements from patent US20260055148A1 (USTAV ORGANICKE CHEMIE A BIOCHEMIE AV CR V V I, published 2026).

As usually defined, the Kd is the constant that tells how readily two partners part at equilibrium. Usually kon stands for the rate constant with which the complex forms. As a reminder, the koff is the first-order rate constant of dissociation.

In experiment [1] the target is T1, C3b (human complement C3b) (human, UniProt P01024 23-667; P01024 749-1663). Put plainly: cell-based or functional assay.
The target of experiment [2] is T2, His-C3d-Avi, biotinylated (human complement C3d with N-terminal His-tag and C-terminal Avi-tag) (human, UniProt P01024 996-1303, site-specific biotinylation of the C-terminal Avi-tag).
T2 construct: domain: C3d; SPR ligand for the ISG65 mutants; not shown: N-terminal His-tag (pET15b); C-terminal Avi-tag
As to the kind of experiment: SPR BIAcore T200, biotinylated C3d-Avi immobilised, ISG65 as analyte. A general note: SPR reads the build-up and loss of mass on a sensor chip optically.

Experiment [3] addresses T2, His-C3d-Avi, biotinylated (human …). Put plainly: SPR BIAcore T200, biotinylated C3d-Avi immobilised, ISG65 as analyte; kon1.
For experiment [4] the target is unchanged. As to the kind of experiment: SPR BIAcore T200, biotinylated C3d-Avi immobilised, ISG65 as analyte; koff1.
The next experiment deals with T3, His-C3d E1110A (human, UniProt P01024 996-1303).
T3 construct: domain: C3d; not shown: His-tag
As to the kind of experiment: SPR, relative to wild type C3d.

The target in experiment [5] is T4, His-C3d (recombinant human complement C3d, wild type) (human, UniProt P01024 996-1303).
T4 construct: domain: C3d; Produced in E. coli; also called C3d Wt; TED; not shown: His-tag
As to the kind of experiment: SPR, relative to wild type C3d.

The target of experiment [6] is T5, His-C3d L1109A (human, UniProt P01024 996-1303).
T5 construct: domain: C3d; not shown: His-tag
Put plainly: SPR, relative to wild type C3d.

Experiment [7] has as its target T6, C3c (fragment of human complement C3) (human, UniProt P01024 23-667; P01024 749-954; P01024 1321-1663).
T6 construct: domain: C3c
Put plainly: SPR, biotinylated ISG65 immobilised, C3c as analyte.

Experiment [8] addresses T7, C3a (ANA domain of human complement C3, released) (human, UniProt P01024 672-748).
T7 construct: domain: C3a
Put plainly: SPR BIAcore T200, biotinylated ISG65-Avi immobilised, C3a as analyte.

Experiment [9] addresses T1, C3b (human complement C3b). Put plainly: SPR BIAcore T200, biotinylated ISG65-Avi immobilised, C3b as analyte.
Experiment [10] deals with T4, His-C3d (recombinant human complement …). Put plainly: SPR BIAcore T200, biotinylated ISG65-Avi immobilised, C3d Wt as analyte.
Experiment [11] concerns the target T8, C3 (H2O) (human complement C3 with hydrolysed thioester) (human, UniProt P01024 23-667; P01024 672-1663).
T8 construct: mature
Put plainly: SPR BIAcore T200, biotinylated ISG65-Avi immobilised, C3 (H2O) as analyte.

Experiment [12] addresses T1, C3b (human complement C3b). Put plainly: SPR BIAcore T200, biotinylated ISG65-Avi immobilised, C3b as analyte; kon1.
Experiment [13] deals with T1, C3b (human complement C3b). As to the kind of experiment: SPR BIAcore T200, biotinylated ISG65-Avi immobilised, C3b as analyte; koff1.
For experiment [14], the target named is T5, His-C3d L1109A. Put plainly: SPR BIAcore T200, biotinylated ISG65-Avi immobilised, C3d L1109A as analyte.
Experiment [15] concerns the target T4, His-C3d (recombinant human complement …). As to the kind of experiment: SPR BIAcore T200, biotinylated ISG65-Avi immobilised, C3d Wt as analyte; kon1.
Experiment [16] shares this target. As to the kind of experiment: SPR BIAcore T200, biotinylated ISG65-Avi immobilised, C3d Wt as analyte; koff1.
The target in experiment [17] is T8, C3 (H2O) (human complement C3 with …). As to the kind of experiment: SPR BIAcore T200, biotinylated ISG65-Avi immobilised, C3 (H2O) as analyte; kon1.
Experiment [18] shares this target. Put plainly: SPR BIAcore T200, biotinylated ISG65-Avi immobilised, C3 (H2O) as analyte; koff1.
For experiment [19], the target named is T9, Native human complement C3 (human, UniProt P01024 23-667; P01024 672-1663).
T9 construct: mature; also called native C3; human C3
As to the kind of experiment: SPR BIAcore T200, biotinylated ISG65-Avi immobilised, native C3 as analyte; kon1; kon1, first step of the two-step fit.

Experiment [20] has as its target T9, Native human complement C3. As to the kind of experiment: SPR BIAcore T200, biotinylated ISG65-Avi immobilised, native C3 as analyte; koff1; koff1, first step of the two-step fit.
The target of experiment [21] is T9, Native human complement C3. As to the kind of experiment: SPR BIAcore T200, biotinylated ISG65-Avi immobilised, native C3 as analyte; overall KD of a two-step fit (kon1, kon2, koff1, koff2).
The target in experiment [22] is T2, His-C3d-Avi, biotinylated (human …). Put plainly: SPR, biotinylated C3d-Avi immobilised, ISG65 Y293A as analyte.

T8 sequence (P01024 23-667 limits assumed, chain 1 of 2): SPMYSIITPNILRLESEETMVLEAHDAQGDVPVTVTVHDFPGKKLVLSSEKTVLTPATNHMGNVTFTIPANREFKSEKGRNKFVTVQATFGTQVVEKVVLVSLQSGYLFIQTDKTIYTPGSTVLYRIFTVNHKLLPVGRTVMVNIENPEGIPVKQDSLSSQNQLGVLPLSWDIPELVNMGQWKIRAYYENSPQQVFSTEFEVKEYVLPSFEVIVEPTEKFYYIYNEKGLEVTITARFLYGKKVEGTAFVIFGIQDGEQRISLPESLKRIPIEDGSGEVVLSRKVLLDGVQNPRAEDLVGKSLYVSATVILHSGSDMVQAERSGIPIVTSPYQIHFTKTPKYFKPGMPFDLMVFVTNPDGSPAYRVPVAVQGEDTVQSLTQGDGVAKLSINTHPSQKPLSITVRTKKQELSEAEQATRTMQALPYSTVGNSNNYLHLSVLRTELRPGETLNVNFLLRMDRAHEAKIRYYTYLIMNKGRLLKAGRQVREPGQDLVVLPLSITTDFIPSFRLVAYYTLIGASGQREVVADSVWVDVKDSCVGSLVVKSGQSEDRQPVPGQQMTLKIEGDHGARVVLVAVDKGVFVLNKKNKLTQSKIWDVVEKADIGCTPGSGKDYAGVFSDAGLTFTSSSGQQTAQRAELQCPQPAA
T8 sequence (P01024 672-1663 limits assumed, chain 2 of 2): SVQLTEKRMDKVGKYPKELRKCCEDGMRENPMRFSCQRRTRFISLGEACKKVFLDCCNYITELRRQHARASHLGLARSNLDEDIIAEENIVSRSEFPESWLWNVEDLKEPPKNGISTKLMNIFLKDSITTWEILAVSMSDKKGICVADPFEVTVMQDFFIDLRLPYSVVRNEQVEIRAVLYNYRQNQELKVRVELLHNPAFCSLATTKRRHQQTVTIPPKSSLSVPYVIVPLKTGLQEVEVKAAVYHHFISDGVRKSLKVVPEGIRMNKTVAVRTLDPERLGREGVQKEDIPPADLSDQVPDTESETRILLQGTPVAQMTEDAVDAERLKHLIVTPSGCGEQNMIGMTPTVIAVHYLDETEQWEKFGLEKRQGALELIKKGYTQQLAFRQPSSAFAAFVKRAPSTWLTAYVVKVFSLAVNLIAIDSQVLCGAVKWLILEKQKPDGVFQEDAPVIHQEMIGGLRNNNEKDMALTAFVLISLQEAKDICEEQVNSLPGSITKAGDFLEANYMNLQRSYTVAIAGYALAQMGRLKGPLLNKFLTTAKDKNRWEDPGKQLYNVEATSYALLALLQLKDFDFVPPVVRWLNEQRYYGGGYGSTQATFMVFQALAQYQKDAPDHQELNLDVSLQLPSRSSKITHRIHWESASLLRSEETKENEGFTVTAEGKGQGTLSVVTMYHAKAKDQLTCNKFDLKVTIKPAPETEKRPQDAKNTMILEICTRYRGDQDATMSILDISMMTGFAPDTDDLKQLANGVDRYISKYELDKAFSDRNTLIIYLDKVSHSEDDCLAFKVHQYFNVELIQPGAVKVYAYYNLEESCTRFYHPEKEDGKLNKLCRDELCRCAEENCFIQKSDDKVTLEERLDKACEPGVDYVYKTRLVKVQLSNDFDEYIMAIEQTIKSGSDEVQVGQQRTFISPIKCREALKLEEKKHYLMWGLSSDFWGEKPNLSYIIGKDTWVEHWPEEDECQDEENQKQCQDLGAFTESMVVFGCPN
T9 sequence (P01024 23-667 limits assumed, chain 1 of 2): as the sequence (P01024 23-667 limits assumed, chain 1 of 2) above
T9 sequence (P01024 672-1663 limits assumed, chain 2 of 2): as the sequence (P01024 672-1663 limits assumed, chain 2 of 2) above
T1 sequence (P01024 23-667 limits assumed, chain 1 of 2): as the sequence (P01024 23-667 limits assumed, chain 1 of 2) above
T1 sequence (P01024 749-1663 limits assumed, chain 2 of 2): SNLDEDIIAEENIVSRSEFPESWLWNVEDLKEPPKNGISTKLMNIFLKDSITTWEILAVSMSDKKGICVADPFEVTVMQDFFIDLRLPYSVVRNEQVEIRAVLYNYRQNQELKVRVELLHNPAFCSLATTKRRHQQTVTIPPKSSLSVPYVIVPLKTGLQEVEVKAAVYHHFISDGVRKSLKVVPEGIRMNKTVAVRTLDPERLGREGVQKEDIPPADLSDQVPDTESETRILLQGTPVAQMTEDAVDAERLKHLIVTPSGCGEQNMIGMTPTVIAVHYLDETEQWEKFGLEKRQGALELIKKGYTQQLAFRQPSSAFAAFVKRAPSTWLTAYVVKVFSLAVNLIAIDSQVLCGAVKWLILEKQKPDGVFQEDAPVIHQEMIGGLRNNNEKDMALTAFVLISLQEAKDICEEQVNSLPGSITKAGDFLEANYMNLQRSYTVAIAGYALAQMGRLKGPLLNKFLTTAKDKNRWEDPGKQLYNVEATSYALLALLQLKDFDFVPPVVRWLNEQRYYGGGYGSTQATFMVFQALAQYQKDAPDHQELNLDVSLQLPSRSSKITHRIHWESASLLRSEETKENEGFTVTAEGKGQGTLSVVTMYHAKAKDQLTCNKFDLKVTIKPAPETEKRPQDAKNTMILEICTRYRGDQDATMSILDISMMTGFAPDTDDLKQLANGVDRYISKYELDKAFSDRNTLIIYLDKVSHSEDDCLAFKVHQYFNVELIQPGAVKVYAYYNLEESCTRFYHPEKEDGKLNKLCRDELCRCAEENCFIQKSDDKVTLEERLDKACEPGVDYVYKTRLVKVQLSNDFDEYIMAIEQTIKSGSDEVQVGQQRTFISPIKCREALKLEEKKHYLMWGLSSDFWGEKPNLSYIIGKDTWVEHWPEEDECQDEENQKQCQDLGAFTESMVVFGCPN
T2 sequence (P01024 996-1303 limits assumed): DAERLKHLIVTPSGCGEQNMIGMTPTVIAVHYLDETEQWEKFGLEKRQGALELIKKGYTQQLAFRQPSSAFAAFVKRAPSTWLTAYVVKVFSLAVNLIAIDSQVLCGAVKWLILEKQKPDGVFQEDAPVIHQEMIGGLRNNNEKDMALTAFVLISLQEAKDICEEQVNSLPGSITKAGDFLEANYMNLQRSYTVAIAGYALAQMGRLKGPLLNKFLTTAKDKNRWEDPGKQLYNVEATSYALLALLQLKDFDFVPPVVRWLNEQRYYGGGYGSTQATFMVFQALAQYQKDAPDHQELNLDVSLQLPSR
T4 sequence (P01024 996-1303 limits assumed): as above
T5 sequence (P01024 996-1303 L1109A limits assumed): as the sequence (P01024 996-1303 limits assumed) above, with L114A counted along it
T7 sequence (P01024 672-748 limits assumed): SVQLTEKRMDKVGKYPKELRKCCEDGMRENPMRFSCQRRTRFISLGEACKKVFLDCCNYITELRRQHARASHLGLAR
T6 sequence (P01024 23-667 limits assumed, chain 1 of 3): as the sequence (P01024 23-667 limits assumed, chain 1 of 2) above
T6 sequence (P01024 749-954 limits assumed, chain 2 of 3): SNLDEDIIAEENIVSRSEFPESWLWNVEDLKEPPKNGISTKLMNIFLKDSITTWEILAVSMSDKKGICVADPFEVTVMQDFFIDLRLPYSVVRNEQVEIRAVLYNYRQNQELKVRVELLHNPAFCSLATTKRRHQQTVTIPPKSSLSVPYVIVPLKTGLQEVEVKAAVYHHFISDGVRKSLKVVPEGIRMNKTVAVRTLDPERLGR
T6 sequence (P01024 1321-1663 limits assumed, chain 3 of 3): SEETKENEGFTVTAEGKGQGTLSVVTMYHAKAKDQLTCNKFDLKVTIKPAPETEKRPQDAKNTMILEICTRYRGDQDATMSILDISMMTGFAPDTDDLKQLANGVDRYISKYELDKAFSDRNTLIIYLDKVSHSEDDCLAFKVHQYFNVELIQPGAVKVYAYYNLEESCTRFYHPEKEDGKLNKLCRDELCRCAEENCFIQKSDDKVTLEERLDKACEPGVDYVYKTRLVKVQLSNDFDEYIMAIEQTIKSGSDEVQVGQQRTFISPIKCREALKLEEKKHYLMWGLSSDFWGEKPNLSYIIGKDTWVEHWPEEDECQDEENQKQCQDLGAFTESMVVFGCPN
T3 sequence (P01024 996-1303 E1110A limits assumed): as the sequence (P01024 996-1303 limits assumed) above, with E115A counted along it

B1: His-ISG65 18-363 (extracellular domain of ISG65 of Trypanosoma brucei gambiense, Tbg.972.2.1600, with N-terminal hexa-histidine tag) (receptor)
chain: MGSSHHHHHHSSGLVPRGSHMLLVIGSEDNRVPGDKKLTKEGAAALCKMKHLADKVAKERSQELKDRTQNFAGYIEFELYRIDYWLEKLNGPKGRKDGYAKLSDSDIEKVKEIFNKAKDGITKQLPEAKKAGEEAGKLHTEVKKAAENARGQDLDDDTAKSTGLYRVLNWYCITKEERHNATPNCDGIQFRKHYLSVNRSAIDCSSTSYEENYDWSANALQVALNSWEDVKPKKLESAGSDKNCNIGQSSESHPCTMTEEWQTPYKETVEKLRELEDAYQRGKKAHDAMLGYANTAYAVNTKVEQEKPLTEVIAAAKEAGKKGAKIIIPAAAPATPTNSTKNDDSAPTEHVDRGIATNETQVEVGID
notes: Expressed in E. coli T7 shuffle cells; also called ISG65 wt
As for B1, the “relative AP50 of human plasma, day 0” value in [1] came to 6 fold. This molecule also had a Kd in experiment [2] of 27.9 nM. Moreover, the on-rate (kon) in experiment [3] amounted to 1e+06 M⁻¹ s⁻¹. Besides, in [4], the koff amounted to 0.04 s⁻¹.

B2: His-ISG65 18-363-Avi, biotinylated at the C-terminal Avi-tag (receptor)
chain: MGSSHHHHHHSSGLVPRGSHMLLVIGSEDNRVPGDKKLTKEGAAALCKMKHLADKVAKERSQELKDRTQNFAGYIEFELYRIDYWLEKLNGPKGRKDGYAKLSDSDIEKVKEIFNKAKDGITKQLPEAKKAGEEAGKLHTEVKKAAENARGQDLDDDTAKSTGLYRVLNWYCITKEERHNATPNCDGIQFRKHYLSVNRSAIDCSSTSYEENYDWSANALQVALNSWEDVKPKKLESAGSDKNCNIGQSSESHPCTMTEEWQTPYKETVEKLRELEDAYQRGKKAHDAMLGYANTAYAVNTKVEQEKPLTEVIAAAKEAGKKGAKIIIPAAAPATPTNSTKNDDSAPTEHVDRGIATNETQVEVGID
modifications: site-specific biotinylation of the C-terminal Avi-tag
notes: SPR ligand captured on a Series S sensor chip CAP; also called ISG65-Avi; biotinylated ISG65; not shown: C-terminal Avi-tag
As for B2, the “ISG65 binding (%)” value with His-C3d E1110A is 8%; in experiment [5], 100%; with His-C3d L1109A [6], 45%. Moreover, the binding result in [7] is recorded as “no binding (tested: 280 nM)”. Also, the Kd was 18100 nM in experiment [8]; 80.9 nM in experiment [9]; 7.2 nM in experiment [10]; 18 nM in experiment [11]; 52.9 nM with His-C3d L1109A [14]; 129 nM in [21]. Also, the kon turned out to be 262000 M⁻¹ s⁻¹ in [12], 5.24e+06 M⁻¹ s⁻¹ in experiment [15], 942000 M⁻¹ s⁻¹ in [17] and 81800 M⁻¹ s⁻¹ in [19]. Moreover, the koff worked out at 0.0212 s⁻¹ in experiment [13], 0.0379 s⁻¹ in experiment [16], 0.017 s⁻¹ in experiment [18] and 0.0543 s⁻¹ in [20].

B3: His-ISG65 18-363 Y293A (receptor)
chain: MGSSHHHHHHSSGLVPRGSHMLLVIGSEDNRVPGDKKLTKEGAAALCKMKHLADKVAKERSQELKDRTQNFAGYIEFELYRIDYWLEKLNGPKGRKDGYAKLSDSDIEKVKEIFNKAKDGITKQLPEAKKAGEEAGKLHTEVKKAAENARGQDLDDDTAKSTGLYRVLNWYCITKEERHNATPNCDGIQFRKHYLSVNRSAIDCSSTSYEENYDWSANALQVALNSWEDVKPKKLESAGSDKNCNIGQSSESHPCTMTEEWQTPYKETVEKLRELEDAYQRGKKAHDAMLGYANTAAAVNTKVEQEKPLTEVIAAAKEAGKKGAKIIIPAAAPATPTNSTKNDDSAPTEHVDRGIATNETQVEVGID
notes: also called ISG65 Y293A
On to B3, for which the binding result in experiment [22] is “no binding (tested: ISG65 1.5-100 nM)”.
